Several values for one entry are separate records, joined by “and”; a condition that tells them apart may be missing. Equal values may be shown once.

This note sets out measurements from paper doi:10.1101/2020.02.24.962464, “Kinetics characterization of ASXL1/2-mediated allosteric regulation of BAP1 deubiquitinase” (bioRxiv, 2020).

Sequences and labels used below:
B1: His-ULD/AB protein complex (pETDuet-1-His-BAP1-ULD+ASXL2-AB) (complex, human)
chain 1: KEVVEATDSREKTGMVRPGEPLSGEKYSPKELLALLKCVEAEIANYEACLKEEVEKRKKFKIDDQRRTHNYDEFICTFISMLAQEGMLANLVEQNISVRRRQGVSIGRLHKQRKPDRRKRSRPYKAKRQ
chain 2: MKRTKCADIDVETPDSILVNTNLRALINKHTFSVLPGDCQQRLLLLLPEVDRQVGPDGLMKLNGSALNNEFFTSAAQGWKERLSEGEFTPEMQVRIRQEIEKEKKVEPWKEQFFESYYGQS
notes: BAP1, human, ULD domain; ASXL2, human, AB box; Complex formed beforehand by co-expression; used as one analyte in pull-down, SPR and Ub-AMC assays; also called ULD/AB complex; Duet-His-ULD/AB; source: E. coli Rosetta 2 (DE3) pLysS, co-expressed from pETDuet-1, purified (cobalt beads, Talon, native conditions)
B2: His-BAP1-ULD (601-729 aa) (domain or fragment, human, UniProt Q92560 601-729, looked up)
chain: B1 chain 1
notes: BAP1, human, UCH37-like domain (ULD), residues 601-729 (pQE30-BAP1-ULD); also called His-ULD; ULD domain
B3: His-ASXL2-AB (261-381 aa) (domain or fragment, human, UniProt Q76L83 261-381, looked up)
chain: B1 chain 2
notes: ASXL2, human, AB box, residues 261-381 (pQE30-ASXL2-AB); also called His-AB; AB box
B4: GST-BAP1-UCH-WT (1-250 aa) (domain or fragment, human, UniProt Q92560 1-250, looked up)
chain: MNKGWLELESDPGLFTLLVEDFGVKGVQVEEIYDLQSKCQGPVYGFIFLFKWIEERRSRRKVSTLVDDTSVIDDDIVNNMFFAHQLIPNSCATHALLSVLLNCSSVDLGPTLSRMKDFTKGFSPESKGYAIGNAPELAKAHNSHARPEPRHLPEKQNGLSAVRTMEAFHFVSYVPITGRLFELDGLKVYPIDHGPWGEDEEWTDKARRVIMERIGLATAGEPYHDIRFNLMAVVPDRRIKYEARLHVLKV
notes: BAP1, human, ubiquitin C-terminal hydrolase (UCH) domain, residues 1-250 (pGEX-2TK-BAP1-UCH-WT); also called GST-UCH; pGEX-2TK-BAP1-UCH-WT; source: E. coli BL21 (DE3), purified (GST resin, native conditions)

For assay [1], the target named is T1, full-length His-BAP1 (Bv-His-BAP1-FL-WT) (human, UniProt Q92560 1-729).
T1 sequence (looked up): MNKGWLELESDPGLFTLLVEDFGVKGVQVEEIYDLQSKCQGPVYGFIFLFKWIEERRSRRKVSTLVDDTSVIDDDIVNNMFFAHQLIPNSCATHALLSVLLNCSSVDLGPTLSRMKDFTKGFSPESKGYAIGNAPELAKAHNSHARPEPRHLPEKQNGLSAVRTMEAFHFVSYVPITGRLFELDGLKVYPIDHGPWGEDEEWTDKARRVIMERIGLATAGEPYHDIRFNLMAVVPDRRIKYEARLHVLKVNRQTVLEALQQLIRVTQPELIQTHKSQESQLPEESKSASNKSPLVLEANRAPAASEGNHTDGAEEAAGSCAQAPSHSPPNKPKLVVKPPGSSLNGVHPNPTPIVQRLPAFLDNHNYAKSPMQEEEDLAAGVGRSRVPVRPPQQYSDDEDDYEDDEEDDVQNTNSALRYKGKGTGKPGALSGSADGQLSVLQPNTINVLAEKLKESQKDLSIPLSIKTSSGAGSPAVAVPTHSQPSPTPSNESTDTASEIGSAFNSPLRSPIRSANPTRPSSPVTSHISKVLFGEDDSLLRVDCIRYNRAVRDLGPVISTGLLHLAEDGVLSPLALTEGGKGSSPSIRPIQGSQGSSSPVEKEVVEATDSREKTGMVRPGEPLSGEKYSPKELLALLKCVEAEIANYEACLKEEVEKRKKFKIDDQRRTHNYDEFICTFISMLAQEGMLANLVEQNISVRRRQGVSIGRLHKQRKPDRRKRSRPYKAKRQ
The experiment in a line: cell-based or functional assay.

The target in assay [2] is T2, full-length His-BAP1 (Bv-His-BAP1-FL-WT) (human, UniProt Q92560 1-729).
T2 chain: T1 sequence (looked up)
The experiment in a line: SPR; steady-state equilibrium. Background: Surface plasmon resonance follows binding to a sensor surface in real time, without labels.

Assay [3] deals with T1, full-length His-BAP1 (Bv-His-BAP1-FL-WT). The experiment in a line: SPR; Biacore T200; full-length His-BAP1, GST-UCH or GST alone amine-coupled to a CM5 chip (~3000 RU), His-ULD/AB complex injected; 25 mM HEPES pH 7.4, 250 mM NaCl, 5 mM DTT, 0.05% Tween20; steady-state and kinetic one-site fits. The note with it: both partners purified.
Assay [4] concerns the target B3. The experiment in a line: ITC; Microcal ITC 200; His-AB 77 µM in the cell, His-ULD 574 µM titrated; 50 mM potassium phosphate pH 7.5, 200 mM potassium chloride, 1 mM TCEP; duplicate. The note with it: both partners purified. A general note: ITC needs no label: the signal is the heat of the interaction.
Assay [5] addresses B2. Described as above. Particulars: both partners purified.
The next assay concerns the target T3, GST-BAP1-ULD (human, UniProt Q92560 601-729).
T3 construct: BAP1, human, ULD domain; also called GST-ULD; pGEX-4T-1-BAP1-ULD; source: E. coli BL21 (DE3), purified (GST resin, native conditions)
T3 sequence (looked up): B1 chain 1
The experiment in a line: SPR; Biacore T200; GST-ULD captured by anti-GST antibody on a CM5 chip (400 RU), His-AB injected; 25 mM HEPES pH 7.4, 150 mM NaCl, 5 mM DTT, 0.05% Tween20; steady-state and kinetic one-site fits. The note with it: both partners purified.

Assay [6] has as its target B1. The experiment in a line: SPR; Biacore T200; full-length His-BAP1, GST-UCH or GST alone amine-coupled to a CM5 chip (~3000 RU), His-ULD/AB complex injected; 25 mM HEPES pH 7.4, 250 mM NaCl, 5 mM DTT, 0.05% Tween20; steady-state and kinetic one-site fits. The note with it: both partners purified.

By Kd is commonly meant the concentration at which binding is half-saturated. A lower Kd goes with a tighter complex. Usually koff stands for a measure of how fast the partners let go of each other. Low values mean a long-lived complex, high ones a short-lived complex. The kon is the second-order rate constant of association. Consider B1, for which, in assay [1], the “fold increase of BAP1 specific activity (100 nM Ub-AMC) with increasing concentrations of His-ULD/AB” value came to 4.5 fold. The molecule further had a dissociation constant Kd in assay [2] of 740 nM. Besides, in assay [3], the dissociation constant (Kd) was 850 nM and 1910 nM; the koff worked out at 0.033 s⁻¹; the kon stood at 39000 M⁻¹ s⁻¹.
As usually defined, the stoichiometry N is a count of units in the complex or per binding partner. With B2, in assay [4], the dH is -9.87 kcal/mol and the “stoichiometry N” value came to 1.
With B3, in assay [1], the “fold increase of the maximal velocity of BAP1 cleavage of Ub-AMC with increasing concentrations of ASXL2-AB” value is 2.5 fold. In assay [5], the Kd was approximately 4.26 µM. For the same molecule, in the assay with GST-BAP1-ULD, the Kd was 134 nM and 67 nM; the off-rate (koff) amounted to 0.0024 s⁻¹; the on-rate constant (kon) amounted to 38000 M⁻¹ s⁻¹.
Turning to B4, in assay [6], the koff was found to be 0.044 s⁻¹ and the on-rate (kon) is 19000 M⁻¹ s⁻¹.
